# Results taken from patent US20250049939A1, “NOVEL FLT3 ANTIBODIES AND ANTIBODY-DRUG-CONJUGATES BASED THEREON, THERAPEUTIC METHODS AND USES THEREOF IN COMBINATION WITH TYROSINE KINASE INHIBITORS” (TUBULIS GmbH, priority 2021, published 2025).
# T1: recombinant human FLT3 (Homo sapiens, UniProt P36888)
# T1 construct: purchased Sino Biological 10445-H08H
# T1 sequence (P36888 27-541 limits assumed): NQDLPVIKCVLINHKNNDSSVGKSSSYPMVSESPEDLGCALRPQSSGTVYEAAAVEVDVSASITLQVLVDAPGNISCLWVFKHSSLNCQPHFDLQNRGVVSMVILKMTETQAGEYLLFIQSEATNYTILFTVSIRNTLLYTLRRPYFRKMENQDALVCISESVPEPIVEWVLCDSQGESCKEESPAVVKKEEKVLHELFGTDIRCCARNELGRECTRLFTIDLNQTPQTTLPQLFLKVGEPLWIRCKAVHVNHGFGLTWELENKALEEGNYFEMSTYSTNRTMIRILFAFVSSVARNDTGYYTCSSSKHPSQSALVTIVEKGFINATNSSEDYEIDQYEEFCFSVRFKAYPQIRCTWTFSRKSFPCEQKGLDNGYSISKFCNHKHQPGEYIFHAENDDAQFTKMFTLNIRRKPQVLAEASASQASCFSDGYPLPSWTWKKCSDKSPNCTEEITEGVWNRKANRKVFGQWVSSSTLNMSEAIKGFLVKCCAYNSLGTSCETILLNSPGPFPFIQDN
# T2: Ba/F3 cells expressing human wildtype FLT3 (Homo sapiens, UniProt P36888)
# T2 construct: expressed in transfected cells; host or cells: Ba/F3 cells, retrovirally transduced with MSCV-IRES-YFP (pMIY) vector
# T2 sequence (P36888 27-993): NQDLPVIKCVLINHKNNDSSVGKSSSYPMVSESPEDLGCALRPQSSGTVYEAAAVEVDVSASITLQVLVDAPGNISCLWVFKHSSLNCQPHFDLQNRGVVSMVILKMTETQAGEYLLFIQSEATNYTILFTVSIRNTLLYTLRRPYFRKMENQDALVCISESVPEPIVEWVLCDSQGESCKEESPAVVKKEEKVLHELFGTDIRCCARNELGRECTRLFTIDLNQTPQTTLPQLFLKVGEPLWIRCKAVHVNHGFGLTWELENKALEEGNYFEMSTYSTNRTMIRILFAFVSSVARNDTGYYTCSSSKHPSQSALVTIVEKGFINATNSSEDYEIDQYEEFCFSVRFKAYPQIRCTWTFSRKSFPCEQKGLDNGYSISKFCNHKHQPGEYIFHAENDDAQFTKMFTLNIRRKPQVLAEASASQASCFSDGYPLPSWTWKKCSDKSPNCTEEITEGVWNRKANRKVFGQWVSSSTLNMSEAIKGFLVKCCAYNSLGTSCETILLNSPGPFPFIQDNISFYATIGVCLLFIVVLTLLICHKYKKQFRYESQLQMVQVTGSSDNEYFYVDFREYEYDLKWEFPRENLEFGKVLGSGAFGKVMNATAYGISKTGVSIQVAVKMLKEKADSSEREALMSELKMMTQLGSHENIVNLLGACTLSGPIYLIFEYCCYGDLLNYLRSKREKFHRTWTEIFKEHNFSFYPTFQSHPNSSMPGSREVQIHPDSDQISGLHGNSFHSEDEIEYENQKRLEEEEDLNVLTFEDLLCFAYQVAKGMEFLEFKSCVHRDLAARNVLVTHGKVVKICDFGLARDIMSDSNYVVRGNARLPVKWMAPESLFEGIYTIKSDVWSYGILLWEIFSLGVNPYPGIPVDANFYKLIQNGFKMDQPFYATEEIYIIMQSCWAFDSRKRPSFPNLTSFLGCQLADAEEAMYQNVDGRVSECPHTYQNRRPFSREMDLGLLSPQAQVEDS
# Experiments:
# recombinant human FLT3 = target: T1, recombinant human FLT3; experiment: ELISA affinity to recombinant human FLT3; format: binding; conditions: chimeric Ab clones
# From the text: FIG. 1: Evaluation of epitope specificity and internalization capability of anti-FLT3 monoclonal antibodies. (A) Affinity of seven anti-FLT3 monoclonal antibody (mab) clones to recombinant human FLT3 measured in enzyme-linked immunosorbent assay (ELISA) normalized to the binding of the antibodies to BSA control. […] (B) Schematic FLT3 receptor. Black arrows indicate common mutations and blue arrows indicate the three identified epitopes of seven anti-FLT3 antibodies analyzed in linear epitope mapping by PEPperPRINT. Figure was created with BioRender.com. (C) Binding and temperature induced internalization of anti-FLT3 antibodies in Ba/F3 cells expressing human wildtype FLT3. Internalization was induced by incubation for 30 min at 37° C. (grey) compared to 4° C. (black). Remaining surface-bound antibody was detected in flow cytometry. MFI was normalized to control human IgG1 binding. MFI=mean fluorescence intensity. […] (D) Cell surface binding of 20D9 mab or control human IgG1 antibody to Ba/F3 cells stably expressing pMIY (Ba/F3-pMIY) empty vector (ev), human wildtype (hFLT3 wt) or ITD mutant human FLT3 (hFLT3ITD) was measured in flow cytometry. Mean±s.d. of n=3. (E) Temperature induced internalization of 4B12 mab in MOLM-13 (FLT3 positive) cells after 30 min incubation at 37° C. compared to 4° C. and HL-60 (FLT3 negative) after 37° C. incubation assessed in immunofluorescence staining. Red=FLT3 staining by 4B12, Green=membrane staining by Vybrant DiO, Blue=nuclear staining by DAPI. Scale bar 5 μm. Representative pictures are shown. (F) Cell surface binding of 20D9 mab or control hIgG1 antibody to Ba/F3-pMIY ev, hFLT3 wt, murine (mFLT3 wt) or cynomolgues monkey FLT3 (cynoFLT3 wt) was measured in flow cytometry. Mean±s.d. of n=3. (G) Cell surface binding of 20D9 mab or control hIgG1 antibody to Ba/F3-PMIY ev, hFLT3 wt or epitope mutant FLT3 (hFLT3/S50P/P54R) measured in flow cytometry. Mean±s.d. of n=3. (H) Cell surface binding of 20D9 mab or control hIgG1 antibody to Ba/F3-PMIY ev, hFLT3 wt or human CD64 (hCD64) measured in flow cytometry. Mean±s.d. of n=3.
# Maxisorp plates were coated with human recombinant FLT3 protein (10445-H08H, Sino Biological). Chimeric (20D9) or humanized anti-FLT3 monoclonal antibodies (in house) and secondary alkaline phosphatase conjugated rabbit anti-human IgG antibody (309-055-008, Jackson Immunoresearch) were used. For detection, Attophos Fluorescent Substrate System (S1000, Promega) was applied. The fluorescence was read with excitation of 405 nm and emission at 500-550 nm. The calculation of the dissociation constant KD was performed using GraphPad Prism version 9.4.0.
# [1] = test system: MOLM-13 (FLT3 positive) cells; experiment: Temperature induced internalization in MOLM-13, flow cytometry; format: cell-based, human; conditions: 30 min at 37° C. compared to 4° C.
# Protocol: For antibody binding studies, cells were stained on ice with primary mouse, rat or human anti-FLT3 antibodies (in house) and secondary antibody Goat F(ab′)2 Anti-Human Ig-PE (2012-09), Goat Anti-Mouse IgG (H+L)-PE (1032-09) or Goat Anti-Rat IgG (H+L)-PE (3052-09) purchased from Southern Biotech. For internalization experiments, cells incubated with anti-FLT3 antibodies were washed and incubated for 30 min at 4° C. or 37° C. followed by staining with secondary antibody.
# [2] = target: T2, Ba/F3 cells expressing human wildtype FLT3; experiment: Temperature induced internalization in Ba/F3-FLT3, flow cytometry; format: cell-based; conditions: 30 min at 37° C. compared to 4° C.
# From the text: FIG. 1: Evaluation of epitope specificity and internalization capability of anti-FLT3 monoclonal antibodies. (A) Affinity of seven anti-FLT3 monoclonal antibody (mab) clones to recombinant human FLT3 measured in enzyme-linked immunosorbent assay (ELISA) normalized to the binding of the antibodies to BSA control. […] (B) Schematic FLT3 receptor. Black arrows indicate common mutations and blue arrows indicate the three identified epitopes of seven anti-FLT3 antibodies analyzed in linear epitope mapping by PEPperPRINT. Figure was created with BioRender.com. (C) Binding and temperature induced internalization of anti-FLT3 antibodies in Ba/F3 cells expressing human wildtype FLT3. Internalization was induced by incubation for 30 min at 37° C. (grey) compared to 4° C. (black). Remaining surface-bound antibody was detected in flow cytometry. MFI was normalized to control human IgG1 binding. MFI=mean fluorescence intensity. […] (D) Cell surface binding of 20D9 mab or control human IgG1 antibody to Ba/F3 cells stably expressing pMIY (Ba/F3-pMIY) empty vector (ev), human wildtype (hFLT3 wt) or ITD mutant human FLT3 (hFLT3ITD) was measured in flow cytometry. Mean±s.d. of n=3. (E) Temperature induced internalization of 4B12 mab in MOLM-13 (FLT3 positive) cells after 30 min incubation at 37° C. compared to 4° C. and HL-60 (FLT3 negative) after 37° C. incubation assessed in immunofluorescence staining. Red=FLT3 staining by 4B12, Green=membrane staining by Vybrant DiO, Blue=nuclear staining by DAPI. Scale bar 5 μm. Representative pictures are shown. (F) Cell surface binding of 20D9 mab or control hIgG1 antibody to Ba/F3-pMIY ev, hFLT3 wt, murine (mFLT3 wt) or cynomolgues monkey FLT3 (cynoFLT3 wt) was measured in flow cytometry. Mean±s.d. of n=3. (G) Cell surface binding of 20D9 mab or control hIgG1 antibody to Ba/F3-PMIY ev, hFLT3 wt or epitope mutant FLT3 (hFLT3/S50P/P54R) measured in flow cytometry. Mean±s.d. of n=3. (H) Cell surface binding of 20D9 mab or control hIgG1 antibody to Ba/F3-PMIY ev, hFLT3 wt or human CD64 (hCD64) measured in flow cytometry. Mean±s.d. of n=3. […]
Affinity Kd (recombinant human FLT3) [µg/mL],Internalization in Ba/F3-FLT3 [2] [%],Molecule,Internalization in MOLM-13 [1] [%]
0.1339,–,"19H5: chimeric anti-FLT3 antibody from rat; VH SEQ ID NO: 17, VL SEQ ID NO: 18 (antibody, V domains shown, Clone 19H5, heavy chain variable region without a signal seqeunce; Clone 19H5, light chain variable region without a signal seqeunce) VH: MVQPSQTLSLTCTVSGFSLTSYNVNWVRQPPGKGLEWIGAMWRGGGTDYNPALKSRLSISRDTSKSQVFLKMNRLQTEDTAIYFCTRGFGDYWGQGVMVTVSSA VL: DVQMTQSPSSMSASLGDRVTFTCQASQDIGNNLIYFQQKPGKSPRRMICCATNLAHGVPSRFSGSRSGSDYSLTLVSLESEDVADYHCLQYEHYPRTFGGGTKLELKR",–
3.981,26,"2F12: chimeric anti-FLT3 antibody from rat; VH SEQ ID NO: 7, VL SEQ ID NO: 8 (antibody, V domains shown, Clone 2F12, heavy chain variable region without a signal seqeunce; Clone 2F12, light chain variable region without a signal seqeunce) VH: EVKLEESGGGLVQPGGSMKLSCVASGFTFSNYWMNWVRQSPEKGLEWVAQIRLKSDNYATHYAESVKGRFTISRDDSKDSVYLQMNNLRAEDTGIYYCAVSLARSDYWGQGTTLTVSSA VL: DVVMTQSPPSLSASLGDKVTITCQASQNINKYIAWYQQKPGKAPRLLIRYTSTLESGTPSRFSGSGSGRDFSFSISNVESEDIASYYCLQYVNLPRTFGGGTKLELKR",12
